Where “and” joins values, the source holds several entries; their conditions need not be identical. Identical values can stand only once. Marks after values point to notes of the source that are not given here. One block for each compound: values may come before it. Residues, ends and D or L forms follow the SMILES beside them. *: point of attachment. Cbz = O=C(OCc1ccccc1)*
What was measured:
[1] = system: soluble FGF receptors (FGFRs); experiment: Receptor binding specificity: control growth factors with soluble FGFRs; type: cell-based; conditions: all soluble FGFRs under analysis
Procedure: NIH 3T3 cells were serum-starved, incubated with the indicated growth factor (square=PDGF-BB; triangle=aFGF; circle=FGF-CX) either alone or together with the indicated soluble FGFR, and analyzed by a BrdU incorporation assay. Experiments were performed in triplicate and are represented as the percent BrdU increase in incorporation of BrdU relative to cells receiving the growth factor alone.
To determine the receptor binding specificity of FGF-20, we examined the effect of soluble FGF receptors (FGFRs) on the induction of DNA synthesis in NIH 3T3 cells by recombinant FGF-20. Four receptors have been identified to date (Klint P and Claesson-Welsh L. Front. Biosci., 4: 165-177, 1999; Xu X, et al. Cell Tissue Res., 296: 33-43, 1999). Soluble receptors for FGFR1β(IIIc), FGFR2a(IIIb), FGFR2β(IIIb), FGFR2a(IIIc), FGFR3a(IIIc) and FGFR4 were utilized.

[2] = system: NIH 3T3 murine embryonic fibroblast cells; experiment: BrdU incorporation bioassay of RP-HPLC peak fractions; type: cell-based, mouse; conditions: for induction of DNA synthesis / activity in proliferation assays: BrdU incorporation; for PI200: concentration giving BrdU incorporation at 2 times the background, serum-starved NIH 3T3, 18 hours
Procedure: The biological activity of CG53135-05 related species collected from the 4 peaks identified by LC and MS was measured by treatment of serum-starved cultured NIH 3T3 murine embryonic fibroblast cells with various doses of the isolated CG53135-05 related species and measurement of incorporation of bromodeoxyuridine (BrdU) during DNA synthesis. For this assay, cells were cultured in Dulbecco's modified Eagle's medium supplemented with 10% fetal bovine serum. Cells were grown in 96-well plates to confluence at 37° C. in 10% CO2/air and then starved in Dulbecco's modified Eagle's medium for 24-72 hours. CG53135-05-related species were added and incubated for 18 hours at 37° C. in 10% CO2/air. BrdU ([…]) was added and incubated with the cells for 2 hours at 37° C. in 10% CO2/air. Incorporation of BrdU was measured by enzyme-linked immunosorbent assay according to the manufacturer's specifications (Roche Molecular Biochemicals, Indianapolis, Ind.).
Peak 4 was not included in this assay since insufficient material was collected (Peak 4 is less than 3% of the total peak area for CG53135-05).

endothelial cells = experiment: Proliferation summary for variants; type: cell-based; conditions: in vitro
Procedure: (§1) Experiments were performed to evaluate the proliferative response of representative cell types to CG53135, e.g., a full-length tagged variant (CG53135-01), a deletion variant (CG53135-02), and a full-length codon-optimized untagged variant (CG53135-05).
(§2) CG53135-02 (batch 1 and 13) was also used in these experiments. Protein was expressed in E. coli, BLR (DE3) (Novagen), transformed with the deletion variant CG53135-02 inserted into a pET24a vector (Novagen). A research cell bank (RCB) was produced and cell paste containing CG53135-02 was produced by fermentation of cells originating from the RCB. Cell membranes were disrupted by high-pressure homogenization, and lysate was clarified by centrifugation. CG53135-02 was purified by ion exchange chromatography. The final protein fraction was dialyzed against the formulation buffer (100 mM citrate, 1 mM ethylenediaminetetraacetic acid (EDTA), and 1 M L-arginine).
(§3) CG53135-05, DEV10, which were also used in these experiments, was prepared by Cambrex Biosciences (Hopkinton, Mass.) according to Process 1 as described in Section 6.18.1, infra.
(§4) BrdU Incorporation: proliferative activity was measured by treatment of serum-starved cultured cells with a given agent and measurement of BrdU incorporation during DNA synthesis. Cells were cultured in respective manufacturer recommended basal growth medium supplemented with 10% fetal bovine serum or 10% calf serum as per manufacturer recommendations. Cells were grown in 96-well plates to confluence at 37° C. in 10% CO2/air (to subconfluence at 5% CO2 for dedifferentiated chondrocytes and NHOst). Cells were then starved in respective basal growth medium for 24-72 hours. CG53135 protein purified from E. coli or pCEP4/Sec or pCEP4/Sec-FGF 20× enriched conditioned medium was added (10 μL/100 μL of culture) for 18 hours. BrdU (10 μM final concentration) was then added and incubated with the cells for 5 hours. BrdU incorporation was assayed according to the manufacturer's specifications (Roche Molecular Biochemicals, Indianapolis, Ind.).
(§5) The above described experiments were also performed using CG53135-02 and CG53135-05 protein products, and the results are summarized in the Conclusion section below.

[3] = system: mesenchymal and epithelial cells; experiment: Proliferation summary for variants; type: cell-based; conditions: in vitro
Procedure: as §1, §2, §3, §4, §5

[4] = Turbidity (aggregates) after ultrafiltration/diafiltration; type: physicochemical
Procedure: The experiment was conducted by performing the ultrafiltration/diafiltration at 2.5 mg/mL CG53135-05 in 0.2M arginine and 0.05 M sodium phosphate buffer at pH 7.0. After exchanging with 7 volumes of the final buffer (0.5M arginine and 0.05 M sodium phosphate buffer at pH 7.0), the diafiltrate is concentrated to ˜20 mg/mL. The diafiltrate is then diluted with the final buffer to ˜12.5 mg/mL and lyophilized. Polysorbate 80 is added either before or after the diafiltration to a final concentration of 0.01%.
All formulation contains 0.5 M arginine, 0.05 M sodium phosphate monobasic, and 0.01% polysorbate 80.

[5] = Solubility of protein in formulation buffers; type: physicochemical; conditions: for Solubility of Process 2 protein, Arginine Sulfate vs Arginine Phosphate: Batches #K, #J
Procedure: Four unexpected properties of CG53135 were discovered and used to develop the new formulation: (1) high concentration of arginine, >0.4 M, increases the solubility to >30 mg/mL; (2) the use of sulfate salt of arginine increases the solubility by at least 2-6 folds; (3) the optimal concentration of sodium phosphate as a buffering salt is 50 mM, with a solubility of at least 1-2 fold increase in comparison with concentrations at 25, 75, and 100 mM; and (4) adding a surfactant during the diafiltration/ultrafiltration step minimizes the formation of aggregates. In development the lyophilized formulation, each component of the new formulation was evaluated for solubility individually. CG53135-05 was precipitated using the precipitate buffer (50 mM NaPi, 5 mM EDTA, 1 M L-Arginine HCl, 2.5 M (NH4)2SO4). The precipitate was washed with 25 mM sodium phosphate buffer at pH 6.5 to remove the residual arginine and ammonium sulfate. The following are examples of data.

NIH 3T3 cells = experiment: BrdU incorporation, truncated vs full length FGF-20 conditioned medium; type: cell-based, mouse; conditions: 10 ng/mL
Procedure: NIH 3T3 mouse fibroblasts were serum-starved, incubated with the indicated factor for 18 hours, and analyzed by a BrdU incorporation assay.
A vector expressing amino acids 24-211 of FGF-20, referred to as CG53135-17 (SEQ ID NOs:31 and 32), was prepared. The incorporation of BrdU by NIH 3T3 cells treated with conditioned medium obtained using the vector incorporating this truncated form was compared to the incorporation in response to treatment with conditioned medium using a vector encoding full length FGF-20. This experiment was carried out as described above.

[6] = system: COX-2 induction in Caco-2 cells; experiment: COX-2 induction by CG53135 in presence of proteosome inhibitor; type: cell-based, human
Procedure: FIG. 18. Effect of NFkB on activation of CG53135 and stimulation of COX-2 in intestinal epithelial cells. NFkB promoter activity was assayed in HT-29 and Caco2 cell lines in the presence of CG53135-01 E. coli purified product.
ITF promoter activity in HT-29 cells was assayed. […] Thus NF-kB may not have a role inducing COX-2 expression in the presence of CG53135.

- effect of soluble receptor reagents on induction of DNA synthesis by control factor [1]: inhibit the induction of DNA synthesis
Compound: aFGF: acidic FGF, a factor known to interact with all of the FGFRs under analysis

Compound: Peak 3: RP-HPLC peak at 28.5 min: CG53135-05 (residues 1-211)
- induction of DNA synthesis / activity in proliferation assays [2]: dose-dependent manner
- PI200 [2]: 8.6 ng/mL

Compound: CG53135-02: Codon optimized, amino acids 2-54 of SEQ ID NO: 2 removed; SEQ ID NOs 3 and 4
- proliferation of endothelial cells (endothelial cells): induces proliferation
- proliferation of mesenchymal and epithelial cells [3]: induce proliferation

Compound: Peak 2: RP-HPLC peak at 27.3 min: CG53135-13 (residues 3-211)
- induction of DNA synthesis / activity in proliferation assays [2]: dose-dependent manner
- PI200 [2]: 11 ng/mL

Compound: Process 2 protein: protein product (CG53135-05) produced by the improved production process, Process 2
- Turbidity ([4]; Polysorbate added during ultrafiltration/diafiltration: No, 13.0 mg/mL): 4.6 NTU
- Turbidity ([4]; Polysorbate added during ultrafiltration/diafiltration: Yes, 12.5 mg/mL): 20.9 NTU
- Solubility of Process 2 protein ([5]; Arginine 0.05 M, Batches #1-#3): 0.7 mg/mL and 0.6 mg/mL and 0.5 mg/mL
- Solubility of Process 2 protein ([5]; Arginine 0.15 M, Batches #1-#3): 2.2 mg/mL and 1.6 mg/mL
- Solubility of Process 2 protein ([5]; Arginine 0.20 M, Batches #1-#3): 3.0 mg/mL and 4.7 mg/mL and 4.3 mg/mL
- Solubility of Process 2 protein ([5]; Arginine 0.30 M, Batch #4): 5.8 mg/mL
- Solubility of Process 2 protein ([5]; Arginine 0.35 M, Batch #4): 10.1 mg/mL
- Solubility of Process 2 protein ([5]; Arginine 0.40 M, Batch #4): 9.8 mg/mL
- Solubility of Process 2 protein ([5]; Arginine 0.45 M, Batch #4): 32.3 mg/mL
- Solubility of Process 2 protein ([5]; Arginine 0.50 M, Batch #4 (not sufficient protein to be dissolved) and #5): 23.8* mg/mL and 37 mg/mL
- Solubility of Process 2 protein, Arginine Sulfate vs Arginine Phosphate ([5]; first formulation line: 50 mM sodium phosphate monobasic and 0.15 M Arginine at pH 7): 4400 µg/mL and 2300 µg/mL
- Solubility of Process 2 protein, Arginine Sulfate vs Arginine Phosphate ([5]; second formulation line: 50 mM sodium phosphate monobasic and 0.15 M Arginine at pH 7): 6500 µg/mL and 5200 µg/mL
- Solubility of Process 2 protein ([5]; sodium phosphate monobasic 25 mM, 0.2 M arginine, Batches #A-#E): 4.01 mg/mL and 2.4 mg/mL and 2.6 mg/mL and 3.59 mg/mL
- Solubility of Process 2 protein ([5]; sodium phosphate monobasic 50 mM, 0.2 M arginine, Batches #A-#E): 5.47 mg/mL and 4.7 mg/mL and 3.3 mg/mL and 4.3 mg/mL and 4.81 mg/mL
- Solubility of Process 2 protein ([5]; sodium phosphate monobasic 75 mM, 0.2 M arginine, Batches #A-#E): 4.06 mg/mL and 2.5 mg/mL and 2.6 mg/mL and 3.0 mg/mL and 2.38 mg/mL
- Solubility of Process 2 protein ([5]; sodium phosphate monobasic 100 mM, 0.2 M arginine, Batches #A-#E): 3.78 mg/mL and 2.8 mg/mL and 2.4 mg/mL and 2.9 mg/mL and 2.47 mg/mL

Compound: CG53135-17: CG53135-05 minus first 23 amino acids at the N-terminus (amino acids 24-211 of FGF-20)
- activity (BrdU incorporation) at lowest concentration tested (NIH 3T3 cells): retains high activity

Compound: CG53135-05 (DEV 10): Process 1 reference standard of CG53135-05 E. coli purified product
- PI200 [2]: 1.0 ng/mL

Compound: CC(C)C[C@@H](C=O)NC(=O)[C@H](CC(C)C)NC(=O)[C@H](CC(C)C)NC(=O)OCc1ccccc1 [MG132] (Cbz-Leu-Leu-Leu-aldehyde)
- block of COX-2 induction by CG53135 [6]: does not block COX-2 induction

Compound: PDGF-BB: control growth factor
- effect of soluble receptor reagents on induction of DNA synthesis by control factor [1]: None of the soluble receptor reagents interfered
